Test results: patent publication US20220235109A1 (CUGENE, published 2022)

T1: IL-2Rα (CD25) on human CD4+ Treg cells (human, UniProt P01589 22-272)
T1 sequence (looked up): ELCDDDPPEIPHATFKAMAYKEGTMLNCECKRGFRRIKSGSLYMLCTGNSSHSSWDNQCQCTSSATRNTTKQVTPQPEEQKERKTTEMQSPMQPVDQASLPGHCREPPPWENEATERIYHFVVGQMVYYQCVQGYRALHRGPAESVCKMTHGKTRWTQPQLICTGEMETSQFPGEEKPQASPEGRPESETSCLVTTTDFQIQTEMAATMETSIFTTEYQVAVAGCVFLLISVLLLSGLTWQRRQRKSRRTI

T2: IL-2Rβγ on human CD8+ T cells, NK cells and CD4+ T cells (human, UniProt P14784 27-551; P31785 23-369)
T2 sequence (looked up) 1: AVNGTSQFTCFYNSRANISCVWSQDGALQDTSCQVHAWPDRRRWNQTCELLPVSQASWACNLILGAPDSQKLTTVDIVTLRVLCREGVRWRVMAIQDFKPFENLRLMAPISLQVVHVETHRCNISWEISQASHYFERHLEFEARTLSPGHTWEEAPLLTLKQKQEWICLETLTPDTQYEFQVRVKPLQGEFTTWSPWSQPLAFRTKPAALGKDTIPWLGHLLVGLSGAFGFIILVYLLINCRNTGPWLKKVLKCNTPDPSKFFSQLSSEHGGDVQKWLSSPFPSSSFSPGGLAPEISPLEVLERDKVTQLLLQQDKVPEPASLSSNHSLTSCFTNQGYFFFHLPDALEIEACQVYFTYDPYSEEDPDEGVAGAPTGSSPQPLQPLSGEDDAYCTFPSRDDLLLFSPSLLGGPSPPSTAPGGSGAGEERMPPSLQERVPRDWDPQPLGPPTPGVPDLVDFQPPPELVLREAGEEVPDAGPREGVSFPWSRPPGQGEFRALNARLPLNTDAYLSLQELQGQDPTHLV
T2 sequence (looked up) 2: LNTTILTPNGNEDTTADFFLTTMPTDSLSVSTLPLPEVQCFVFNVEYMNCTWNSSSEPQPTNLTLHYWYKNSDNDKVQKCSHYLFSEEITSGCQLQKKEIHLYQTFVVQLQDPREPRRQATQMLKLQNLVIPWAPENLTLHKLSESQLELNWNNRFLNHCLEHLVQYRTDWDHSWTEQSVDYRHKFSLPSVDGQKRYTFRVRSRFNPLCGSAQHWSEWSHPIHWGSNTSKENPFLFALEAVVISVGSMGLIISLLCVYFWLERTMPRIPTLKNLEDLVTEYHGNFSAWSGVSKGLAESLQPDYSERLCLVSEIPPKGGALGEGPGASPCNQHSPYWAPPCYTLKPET

T3: IL-2Rα-ECD (human, UniProt P01589 22-240)
T3 construct: coated on ELISA plates at 0.1 µg/well; also called CD25; receptor subunit α
T3 sequence: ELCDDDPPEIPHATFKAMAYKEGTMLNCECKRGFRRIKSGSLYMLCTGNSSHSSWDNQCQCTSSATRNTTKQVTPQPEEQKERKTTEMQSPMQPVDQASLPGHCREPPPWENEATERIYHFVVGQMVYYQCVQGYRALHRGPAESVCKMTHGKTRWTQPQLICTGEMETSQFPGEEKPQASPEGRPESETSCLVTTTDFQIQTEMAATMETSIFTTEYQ


Tests used:
[1] = biological target: T1, IL-2Rα (CD25) on human CD4+ Treg cells; experiment: cell-based or functional assay
[2] = biological target: T2, IL-2Rβγ on human CD8+ T cells, NK cells …; experiment: cell-based or functional assay
IL-2Rα-ECD = biological target: T3, IL-2Rα-ECD; experiment: ELISA, IL-2Rα-ECD coated
Experimental: A panel of IL-2 muteins was expressed as C-terminal fusions to the Fc homodimer of Fc heterodimer and screened for binding to IL-2Rα in enzyme-linked immunosorbent assay (ELISA). Briefly, IL-2Rα-ECD (SEQ ID NO: 5) was coated onto the wells of Nunc Maxisorp 96-well microplates at 0.1 μg/well. After overnight incubation at 4° C. and blocking with superblock (Thermo Fisher), 3-fold serial dilutions of IL-2 Fc fusion proteins starting at 100 nM were added to each well at 100 μI/well. Following one-hour incubation at room temperature, 100 μl/well of goat anti-human IgG Fc-HRP (1:5000 diluted in diluent) were added to each well and incubated at room temperature for 1 hour. Wells were thoroughly aspirated and washed three times with PBS/0.05% Tween-20 following each step. Finally, 100 μl TMB substrate was added to each well; the plate was developed at room temperature in the dark for 10 minutes, and 100 μl/well of stop solution (2N Sulfuric acid, Ricca Chemical) was added. Absorbance was determined at 450 nm and curves were fit using Prism software (Graph Pad).

Binder | pSTAT5 EC50 in Treg cells (human PBMC) [1] | Binding EC50 vs P-0689 (IL-2Rα-ECD) | binding result (IL-2Rα-ECD) | other results
P-0837 (antibody, mouse IgG1, kappa) heavy 1: EVQLQESGPGLVKPSQSLSLTCSVTGYSITSSYRWNWIRKFPGNRLEWMGYINSAGISNYNPSLKRRISITRDTSKNQFFLQVNSVTTEDAATYYCARSDNMGTTPFTYWGQGTLVTVSSAKTTPPSVYPLAPGSAAQTNSMVTLGCLVKGYFPEPVTVTWNSGSLSSGVHTFPAVLQSDLYTLSSSVTVPSSTWPSQTVTCNVAHPASSTKVDKKIVPRDCGCKPCICTVPEVSSVFIFPPKPKDVLTITLTPKVTCVVVAISKDDPEVQFSWFVDDVEVHTAQTKPREEQINSTFRSVSELPIMHQDWLNGKEFKCRVNSAAFGAPIEKTISKTKGRPKAPQVYTIPPPKKQMAKDKVSLTCMITNFFPEDITVEWQWNGQPAENYKNTQPIMKTDGSYFVYSKLNVQKSNWEAGNTFTCSVLHEGLHNHHTEKSLSHSPG heavy 2: not shown light: DIVMTQGTLPNPVPSGESVSITCRSSKSLLYSDGKTYLNWYLQRPGQSPQLLIYWMSTRASGVSDRFSGSGSGTDFTLKISGVEAEDVGIYYCQQGLEFPTFGGGTKLELKRTDAAPTVSIFPPSSEQLTSGGASVVCFLNNFYPRDINVKWKIDGSERQNGVLNSWTDQDSKDSTYSMSSTLTLTKDEYERHNSYTCEATHKTSTSPIVKSFNRNEC | 0.45 pM |  |  | 
P-0838 (antibody, mouse IgG1, kappa) heavy 1: EVQLQESGPGLVKPSQSLSLTCSVTGYSITSSYRWNWIRKFPGNRLEWMGYINSAGISNYNPSLKRRISITRDTSKNQFFLQVNSVTTEDAATYYCARSDNMGTTPFTYWGQGTLVTVSSAKTTPPSVYPLAPGSAAQTNSMVTLGCLVKGYFPEPVTVTWNSGSLSSGVHTFPAVLQSDLYTLSSSVTVPSSTWPSQTVTCNVAHPASSTKVDKKIVPRDCGCKPCICTVPEVSSVFIFPPKPKDVLTITLTPKVTCVVVAISKDDPEVQFSWFVDDVEVHTAQTKPREEQINSTFRSVSELPIMHQDWLNGKEFKCRVNSAAFGAPIEKTISKTKGRPKAPQVYTIPPPKKQMAKDKVSLTCMITNFFPEDITVEWQWNGQPAENYKNTQPIMKTDGSYFVYSKLNVQKSNWEAGNTFTCSVLHEGLHNHHTEKSLSHSPG heavy 2: not shown light: DIVMTQGTLPNPVPSGESVSITCRSSKSLLYSDGKTYLNWYLQRPGQSPQLLIYWMSTRASGVSDRFSGSGSGTDFTLKISGVEAEDVGIYYCQQGLEFPTFGGGTKLELKRTDAAPTVSIFPPSSEQLTSGGASVVCFLNNFYPRDINVKWKIDGSERQNGVLNSWTDQDSKDSTYSMSSTLTLTKDEYERHNSYTCEATHKTSTSPIVKSFNRNEC | 0.36 nM |  |  | pSTAT5 EC50 in Treg cells, fold against P-0837 [1]: 800 fold; pSTAT5 EC50 in CD8+ T cells (human PBMC) [2]: 4.6 nM
P-0732 (Fc fusion) DKTHTCPPCPAPEAAGAPSVFLFPPKPKDTLMISRTPEVTCVVVDVSHEDPEVKFNWYVDGVEVHNAKTKPREEQYNSTYRVVSVLTVLHQDWLNGKEYKCKVSNKALPAPIEKTISKAKGQPREPQVCTLPPSREEMTKNQVSLWCLVKGFYPSDIAVEWESNGQPENNYKTTPPVLDSDGSFFLYSKLTVDKSRWQQGNVFSCSVMHEALHNHYTQKSLSLSPGGGGSGGGSAPTSSSTKKTQLQLEHLLLDLQMILNGINNYKNPKLTRMLTFKFYMPKKATELKHLQCLEEELKRLEEVLNLAQSKNFHLRPRDLISNINVIVLELKGSETTFMCEYADETATIVEFLNRWITFIESIISTLT Fc: DKTHTCPPCPAPEAAGAPSVFLFPPKPKDTLMISRTPEVTCVVVDVSHEDPEVKFNWYVDGVEVHNAKTKPREEQYNSTYRVVSVLTVLHQDWLNGKEYKCKVSNKALPAPIEKTISKAKGQPREPQVYTLPPCREEMTKNQVSLSCAVKGFYPSDIAVEWESNGQPENNYKTTPPVLDSDGSFFLVSKLTVDKSRWQQGNVFSCSVMHEALHNHYTQKSLSLSPG |  |  |  | Ki67 expression on human CD8+ T cells (EC50 against P-0704) [2]: > 100 fold
P-0765 (Fc fusion, knob chain carries the IL-2 variant; hole-Fc; monovalent; also called IL-2 F42A/P65A/S125I monovalent Fc fusion) chain 1: DKTHTCPPCPAPEAAGAPSVFLFPPKPKDTLMISRTPEVTCVVVDVSHEDPEVKFNWYVDGVEVHNAKTKPREEQYNSTYRVVSVLTVLHQDWLNGKEYKCKVSNKALPAPIEKTISKAKGQPREPQVCTLPPSREEMTKNQVSLWCLVKGFYPSDIAVEWESNGQPENNYKTTPPVLDSDGSFFLYSKLTVDKSRWQQGNVFSCSVMHEALHNHYTQKSLSLSPGGGGSGGGSAPTSSSTKKTQLQLEHLLLDLQMILNGINNYKNPKLTRMLTAKFYMPKKATELKHLQCLEEELKALEEVLNLAQSKNFHLRPRDLISNINVIVLELKGSETTFMCEYADETATIVEFLNRWITFIQSIISTLT chain 2: DKTHTCPPCPAPEAAGAPSVFLFPPKPKDTLMISRTPEVTCVVVDVSHEDPEVKFNWYVDGVEVHNAKTKPREEQYNSTYRVVSVLTVLHQDWLNGKEYKCKVSNKALPAPIEKTISKAKGQPREPQVYTLPPCREEMTKNQVSLSCAVKGFYPSDIAVEWESNGQPENNYKTTPPVLDSDGSFFLVSKLTVDKSRWQQGNVFSCSVMHEALHNHYTQKSLSLSPG |  | 6.8 fold (ratio of EC50s) |  | 
P-0766 (Fc fusion, knob chain carries the IL-2 variant; hole-Fc; monovalent; also called IL-2 F42A/E62A/S125I monovalent Fc fusion) chain 1: DKTHTCPPCPAPEAAGAPSVFLFPPKPKDTLMISRTPEVTCVVVDVSHEDPEVKFNWYVDGVEVHNAKTKPREEQYNSTYRVVSVLTVLHQDWLNGKEYKCKVSNKALPAPIEKTISKAKGQPREPQVCTLPPSREEMTKNQVSLWCLVKGFYPSDIAVEWESNGQPENNYKTTPPVLDSDGSFFLYSKLTVDKSRWQQGNVFSCSVMHEALHNHYTQKSLSLSPGGGGSGGGSAPTSSSTKKTQLQLEHLLLDLQMILNGINNYKNPKLTRMLTAKFYMPKKATELKHLQCLEEALKPLEEVLNLAQSKNFHLRPRDLISNINVIVLELKGSETTFMCEYADETATIVEFLNRWITFIQSIISTLT chain 2: DKTHTCPPCPAPEAAGAPSVFLFPPKPKDTLMISRTPEVTCVVVDVSHEDPEVKFNWYVDGVEVHNAKTKPREEQYNSTYRVVSVLTVLHQDWLNGKEYKCKVSNKALPAPIEKTISKAKGQPREPQVYTLPPCREEMTKNQVSLSCAVKGFYPSDIAVEWESNGQPENNYKTTPPVLDSDGSFFLVSKLTVDKSRWQQGNVFSCSVMHEALHNHYTQKSLSLSPG |  | > 500 fold (ratio of EC50s) | no binding | 
P-0767 (Fc fusion, knob chain carries the IL-2 variant; hole-Fc; monovalent; also called IL-2 F42A/E62H/S125I monovalent Fc fusion) chain 1: DKTHTCPPCPAPEAAGAPSVFLFPPKPKDTLMISRTPEVTCVVVDVSHEDPEVKFNWYVDGVEVHNAKTKPREEQYNSTYRVVSVLTVLHQDWLNGKEYKCKVSNKALPAPIEKTISKAKGQPREPQVCTLPPSREEMTKNQVSLWCLVKGFYPSDIAVEWESNGQPENNYKTTPPVLDSDGSFFLYSKLTVDKSRWQQGNVFSCSVMHEALHNHYTQKSLSLSPGGGGSGGGSAPTSSSTKKTQLQLEHLLLDLQMILNGINNYKNPKLTRMLTAKFYMPKKATELKHLQCLEEHLKPLEEVLNLAQSKNFHLRPRDLISNINVIVLELKGSETTFMCEYADETATIVEFLNRWITFIQSIISTLT chain 2: DKTHTCPPCPAPEAAGAPSVFLFPPKPKDTLMISRTPEVTCVVVDVSHEDPEVKFNWYVDGVEVHNAKTKPREEQYNSTYRVVSVLTVLHQDWLNGKEYKCKVSNKALPAPIEKTISKAKGQPREPQVYTLPPCREEMTKNQVSLSCAVKGFYPSDIAVEWESNGQPENNYKTTPPVLDSDGSFFLVSKLTVDKSRWQQGNVFSCSVMHEALHNHYTQKSLSLSPG |  | > 500 fold (ratio of EC50s) | no binding | 
